Laboratory results as given in article PMC9751095 (2022).

Target: T1, Myc-TRAP1 (human, UniProt Q12931 60-704)
T1 chain: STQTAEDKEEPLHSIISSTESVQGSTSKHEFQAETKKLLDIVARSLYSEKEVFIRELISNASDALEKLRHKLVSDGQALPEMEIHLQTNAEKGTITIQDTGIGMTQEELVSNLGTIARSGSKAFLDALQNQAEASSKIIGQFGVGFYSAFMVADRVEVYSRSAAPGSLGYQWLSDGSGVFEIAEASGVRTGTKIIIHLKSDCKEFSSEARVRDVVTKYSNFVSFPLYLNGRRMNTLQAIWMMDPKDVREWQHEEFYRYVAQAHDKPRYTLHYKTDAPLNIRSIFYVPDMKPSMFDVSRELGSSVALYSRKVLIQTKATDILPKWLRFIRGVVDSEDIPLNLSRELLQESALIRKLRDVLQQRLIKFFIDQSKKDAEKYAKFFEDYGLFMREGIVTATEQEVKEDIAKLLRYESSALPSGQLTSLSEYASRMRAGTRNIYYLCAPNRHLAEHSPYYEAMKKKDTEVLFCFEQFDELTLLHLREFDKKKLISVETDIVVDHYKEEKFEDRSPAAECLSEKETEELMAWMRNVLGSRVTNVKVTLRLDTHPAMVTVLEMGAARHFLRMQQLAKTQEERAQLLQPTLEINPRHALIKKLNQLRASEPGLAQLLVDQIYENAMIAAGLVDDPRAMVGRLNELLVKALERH
Experiment: SPR; printed as "Ka 69.8 µM"

Kd: 69.8 µM
B1: recombinant mature human OSCP (natural protein)
chain: FAKLVRPPVQVYGIEGRYATALYSAASKQNKLEQVEKELLRVAQILKEPKVAASVLNPYVKRSIKVKSLNDITAKERFSPLTTNLINLLAENGRLSNTQGVVSAFSTMMSVHRGEVPCTVTSASPLEEATLSELKTVLKSFLSQGQVLKLEAKTDPSILGGMIVRIGEKYVDMSVKTKIQKLGRAMREIV
